In article PMC5581300:
Read-outs that look alike come from different tables or passages of the source.

What was measured:
[1] = biological target: Plasma Membrane Calcium ATPase 4 (mouse (endogenous in sperm)) (UniProt Q6Q477); assay: FRET or BRET
[2] = biological target: Plasma Membrane Calcium ATPase 4 (mouse (endogenous in sperm)) (UniProt Q6Q477); assay: FRET or BRET; remark: listed apart in the source

UniProt Q6Q477, sequence (Q6Q477 whole entry): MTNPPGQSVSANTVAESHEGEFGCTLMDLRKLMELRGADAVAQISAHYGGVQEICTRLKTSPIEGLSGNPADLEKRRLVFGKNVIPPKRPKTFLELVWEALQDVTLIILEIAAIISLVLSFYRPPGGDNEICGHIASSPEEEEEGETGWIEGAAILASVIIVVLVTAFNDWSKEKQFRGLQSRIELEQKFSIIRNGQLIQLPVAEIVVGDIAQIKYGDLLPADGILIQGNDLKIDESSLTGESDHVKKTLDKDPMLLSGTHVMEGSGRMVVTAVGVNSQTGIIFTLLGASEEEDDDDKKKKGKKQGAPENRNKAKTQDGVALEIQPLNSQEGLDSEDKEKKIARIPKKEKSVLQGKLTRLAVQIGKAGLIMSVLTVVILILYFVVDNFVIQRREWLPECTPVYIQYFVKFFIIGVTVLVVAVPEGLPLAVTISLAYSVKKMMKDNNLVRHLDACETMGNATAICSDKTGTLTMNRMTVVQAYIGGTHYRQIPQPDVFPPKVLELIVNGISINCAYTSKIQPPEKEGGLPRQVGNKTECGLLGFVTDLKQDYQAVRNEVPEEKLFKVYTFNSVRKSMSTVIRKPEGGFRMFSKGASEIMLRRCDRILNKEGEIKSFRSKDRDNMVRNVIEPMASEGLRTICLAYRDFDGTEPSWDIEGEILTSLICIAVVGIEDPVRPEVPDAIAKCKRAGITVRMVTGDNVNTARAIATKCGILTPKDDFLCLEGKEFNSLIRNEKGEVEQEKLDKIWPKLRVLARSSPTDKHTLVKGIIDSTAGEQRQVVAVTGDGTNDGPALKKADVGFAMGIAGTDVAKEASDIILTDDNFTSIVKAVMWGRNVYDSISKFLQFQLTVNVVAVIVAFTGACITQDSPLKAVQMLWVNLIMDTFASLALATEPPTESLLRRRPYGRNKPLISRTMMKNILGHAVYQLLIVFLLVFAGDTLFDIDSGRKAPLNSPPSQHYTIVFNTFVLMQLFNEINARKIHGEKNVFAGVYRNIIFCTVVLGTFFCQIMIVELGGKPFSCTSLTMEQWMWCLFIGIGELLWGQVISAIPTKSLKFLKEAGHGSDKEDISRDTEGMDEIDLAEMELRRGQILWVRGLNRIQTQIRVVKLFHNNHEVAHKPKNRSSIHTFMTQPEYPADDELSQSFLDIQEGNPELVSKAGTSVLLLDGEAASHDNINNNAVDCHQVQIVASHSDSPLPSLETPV

FRET efficiency [1]: 6% | FRET efficiency [2]: 24%
Substance: neuronal nitric oxide synthase (from UniProt Q9Z0J4 1-1429) (enzyme)
